Laboratory results published in patent US20070128190A1 (GLENMARK PHARMACEUTICALS S A, published 2007).
Numbering of substitutions follows the chain as printed. Names may count otherwise. Where two headings read alike, the source gives them in different places.

Experiments:
[1] = target: T1, human platelet α2β1 integrin (immobilized on microtiter plates) (human, UniProt P17301 30-1181; P05556 21-798); test: competition with Eu-TMC-2206 on human platelet α2β1-coated plate
T1 construct: plates custom-coated with human platelet α2β1 by GTI Inc; also called immobilized α2β1 integrin; α2β1-coated plates
Description: (§1) Each labeled antibody mixture was applied to a separate PD-10 column (GE Biosciences, Piscataway, N.J.) pre-equilibrated with Running Buffer (50 mM Tris, pH 7.4 and 138 mM NaCl). Fractions (0.5 mL) were collected and assayed for total protein (Bradford reagent; Bio-Rad Laboratories, Hercules, Calif.) using a SpectraMax 384 absorbance plate reader and for europium after 1:10.000 dilution in DELFIA Enhancement Solution (Perkin-Elmer) by time-resolved fluorescence (TRF) using a Victor2 multi-label plate reader (Perkin Elmer). The fractions that were positive for both protein and Eu label were pooled and applied to new PD-10 columns and samples collected and assayed for total protein and for europium content by TRF calibrated against a europium standard solution (Perkin-Elmer) to calculate the fluor: protein ratio. […] After incubating the sealed plates for 1 hr at 37° C. to allow binding to reach equilibrium, 2 μL samples were transferred from each well into a fresh well containing DELFIA Enhancement Solution (100 μL/well; Perkin-Elmer) for the measurement of free (unbound) label. Enhancement Solution (100 μL/well) was added to the emptied wells for the measurement of bound label. The plate was shaken (Titer Plate Shaker speed setting of 5 for 5 minutes at room temperature) and time-resolved fluorescent (TRF) intensities were read using a Victor2 multi-label plate reader (Perkin-Elmer Wallac, Boston, Mas.).

[2] = target: T1, human platelet α2β1 integrin …; test: as above; remark: listed apart in the source
Description: as §1

[3] = target: T1, human platelet α2β1 integrin …; test: as above; remark: listed apart in the source
[4] = target: T2, human α2 integrin with endogenous hamster β1 on CHO cells (human; hamster); test: cell-based or functional assay
[5] = target: T3, Humanized TMC-2206 (hIgG4/κ VH12.0/VL10.0Q); test: fusion protein competing Eu-humanized TMC-2206 off α2β1-coated plates
T3 construct: labelled with Eu or Alexa-488 in some assays
Text: The inhibition curves were fitted with the “one site competition” model using Prism software (GraphPad, Inc.) to obtain IC₅₀ values and to calculate the Kᵢ using the equation of Cheng and Prusoff (1973) and the respective values for KD from above.
The cloning of the human, rhesus macaque, rat, and mouse α2 I domains were described in Example 12. Cynomolgus and additional rhesus monkey α2 I domains were cloned from cDNA derived from total RNA extracted from skin tissue (MediCorp, Inc., Montreal, QC).

TMC-2206 [6] = target: T4, TMC-2206; test: ELISA, GST fusion protein on immobilized TMC-2206 (Kd apparent)
T4 construct: murine IgG1/κ secreted by hybridoma BHA2.1; labelled with Eu-N1-ITC where used as tracer; also called BHA2.1
Description: The fusion proteins were then expressed and purified as described above for the human GST-α2 I domain fusion protein. […] Therefore, these and the primate fusion proteins were further purified by size exclusion chromatography on a Sephadex 75 10/30 (GE-Amersham) column (primate) by FPLC on an Akta-Basic FPLC system (GE-Amersham) to yield a monomeric fraction. […] The Kᵢ assays were performed as described above in Example 2. […] Plates were sealed and coating occurred overnight at 4° C. The next morning, the plates were washed twice with TBS solution and then blocked using 200 μL of the blocking solution described above for 1 hour at room temperature with shaking. After blocking, the blocking solution was removed but the wells were not washed. Instead, a serial dilution of GST fusion protein was made, added to the wells and then incubated for 2 hours at room temperature with shaking. The wells were then aspirated and a TBS washing buffer applied for 5 minutes at room temperature. The washing step was repeated twice more before the secondary antibody was applied. The secondary antibody step consisted of Amersham's HRP-conjugated rabbit anti-GST antibody diluted 1:2000 in blocking buffer. One hundred μL of secondary antibody was added to each well and incubated at room temperature for 1.5 hours with shaking. The wells were again aspirated and washed three times with wash buffer before adding the substrate reaction mixture. One hundred μL of substrate reaction mixture (1:1 dilution of TMB kit) was then added to each well for 6 minutes. The reaction was stopped by adding 100 μL of 0.1M H₂SO₄. The reaction within the wells was then read and quantified by spectrophotometric absorption using the Molecular Dynamics plate reader and associated Softmax software, respectively. Kd values were then estimated from the EC₅₀ values using Prism software (Graphpad, Calif.).

TMC-2206 [7] = target: T4, TMC-2206; test: fusion protein competing Eu-TMC-2206 off α2β1-coated plate
Description: Wells in a 96 well microtiter plate were coated with platelet α2β1-integrin (custom-coated with human platelet α2β1 by GTI Inc., Wis.) and then blocked with nonfat milk. […] After concentration in prewashed MicroSep concentrators (30-kDa cutoff; Pall Life Sciences at 9500 rpm (7000×g) in a JA-20 rotor (Beckman Instruments, Inc.) for 20 minutes at 4° C.), antibodies were adjusted to 4.0 mg/mL with PBS containing a final concentration of 100 mM NaHCO₃, pH 9.3. The mAb/bicarbonate mixture (0.250 mL) was gently mixed into a vial containing 0.2 mg N¹-(p-isothiocyanatobenzyl)-diethylenetriamine-N¹,N²,N³N³-tetraacetic acid chelated with Eu³⁺ (Eu-N1-ITC; Perkin Elmer Life Sciences) and reacted overnight at 4° C. without stirring. Each labeled antibody mixture was applied to a separate PD-10 column (GE Biosciences, Piscataway, N.J.) pre-equilibrated with Running Buffer (50 mM Tris, pH 7.4 and 138 mM NaCl). Fractions (0.5 mL) were collected and assayed for total protein (Bradford reagent; Bio-Rad Laboratories, Hercules, Calif.) using a SpectraMax 384 absorbance plate reader and for europium after 1:10.000 dilution in DELFIA Enhancement Solution (Perkin-Elmer) by time-resolved fluorescence (TRF) using a Victor2 multi-label plate reader (Perkin Elmer). The fractions that were positive for both protein and Eu label were pooled and applied to new PD-10 columns and samples collected and assayed for total protein and for europium content by TRF calibrated against a europium standard solution (Perkin-Elmer) to calculate the fluor: protein ratio.

TMC-2206 [8] = target: T4, TMC-2206; test: as above; remark: listed apart in the source
TMC-2206 [9] = target: T4, TMC-2206; test: as above; remark: listed apart in the source
[10] = target: T1, human platelet α2β1 integrin …; test: competition with Eu-TMC-2206 on human platelet α2β1-coated plate, Cheng-Prusoff
Description: as §1, with “Enhancement Solution (100 μL/well) was added to the emptied wells for the measurement of bound label.” left out

[11] = target: T2, human α2 integrin with endogenous …; test: cell-based or functional assay; remark: listed apart in the source
[12] = target: T1, human platelet α2β1 integrin …; test: competition with Eu-TMC-2206 on human platelet α2β1-coated plate; remark: listed apart in the source
Description: Exemplary IgG1 antibodies have a hVH 14.0 γ heavy chain (SEQ ID NO:181) or a hVH12.0 γ1 heavy chain (SEQ ID NO:182) and a hVL10.0Q light chain (SEQ ID NO:178). Exemplary IgG4 antibodies have a hVH14.0 γ4 heavy chain (SEQ ID NO:174) or a hVH12.0 γ4 heavy chain (SEQ ID NO:176) and a hVL 10.0Q light chain (SEQ ID NO:178). Purified antibodies were tested in the competition assay to compare potency by Kᵢ values as well as in the cell adhesion to collagen assay, where potency is measured as EC₅₀ values.

B1: humanized TMC-2206 variant hVH1.0/hVL1.0 (antibody, human IgG1, V domains shown)
VH: QVQLQESGPGLVKPSETLSLTCTVSGFSLTNYGIHWVRQPPGKGLEWLGVIWARGFTNYNSALMSRLTISKDNSKNQVSLKLSSVTAADTAVYFCARANDGVYYAMDYWGQGTLVTVSS
VL: QFVLTQSPAFLSVTPGEKVTITCSANSSVNYIHWYQQKPDQAPKKWIYDTSKLASGVPSRFSGSGSGTDYTFTISSLEAEDAATYYCQQWTTNPLTFGQGTKVEIK
notes: human IgG1/κ constant regions; also called humanized prototype; first humanized prototype
Ki [1]: 0.33 nM | Ki [2]: 0.27 nM | Ki [3]: 0.32 nM | EC50, inhibition of cell adhesion to collagen [4]: 1.5 nM

B2: GST-cynomolgus α2 I domain fusion protein of Example 18 (sequence identical to the human I domain) (other)
chain: SPDFQLSASFSPATQPCPSLIDVVVVCDESNSIYPWDAVKNFLEKFVQGLDIGPTKTQVGLIQYANNPRVVFNLNTYKTKEEMIVATSQTSQYGGDLTNTFGAIQYARKYAYSAASGGRRSATKVMVVVTDGESHDGSMLKAVIDQCNHDNILRFGIAVLGYLNRNALDTKNLIKEIKAIASIPTERYFFNVSDEAALLEKAGTLGEQIFSIEGTV
notes: also called GST-cynomolgous-α2 I domain fusion protein; not shown: glutathione S-transferase tag, vector not restated
Ki [5]: 0.47 nM

B3: GST-hα2 I domain A114Q (other)
chain: GSSPDFQLSASFSPATQPCPSLIDVVVVCDESNSIYPWDAVKNFLEKFVQGLDIGPTKTQVGLIQYANNPRVVFNLNTYKTKEEMIVATSQTSQYGGDLTNTFGAIQYARKYAYSQASGGRRSATKVMVVVTDGESHDGSMLKAVIDQCNHDNILRFGIAVLGYLNRNALDTKNLIKEIKAIASIPTERYFFNVSDEAALLEKAGTLGEQIFSIEGTVEFIVTD
notes: same construct as m41; not shown: GST carrier with the pGEX-2TK vector linker at the N end
Kd (TMC-2206 [6]): 0.19 nM | Ki (TMC-2206 [7]): 0.64 nM

B4: GST-hα2 I domain A115T (other)
chain: B3 chain with Q116A, A117T
notes: as for B3
Kd (TMC-2206 [6]): 0.19 nM | Ki (TMC-2206 [7]): 0.76 nM

B5: GST-hα2 I domain R165D (other)
chain: B3 chain with Q116A, R167D
notes: as for B3
Ki (TMC-2206 [8]): 1990 nM

B6: GST-hα2 I domain E195W (other)
chain: B3 chain with Q116A, E197W
notes: same construct as m41; reported to lock the I domain in the open conformation; not shown: GST carrier with the pGEX-2TK vector linker at the N end
Ki (TMC-2206 [8]): 12.8 nM | fold decrease in Ki values (TMC-2206 [9]): 45 fold

B7: GST-hα2 I domain Q89H (other)
chain: B3 chain with Q91H, Q116A
notes: as for B3
Ki (TMC-2206 [8]): 4.46 nM | fold decrease in Ki values (TMC-2206 [9]): 15.9 fold

B8: GST-hα2 I domain N73D (other)
chain: B3 chain with N75D, Q116A
notes: as for B3
Ki (TMC-2206 [8]): 2.17 nM | fold decrease in Ki values (TMC-2206 [9]): 7.8 fold

B9: mouse-human chimeric TMC-2206 antibody (wild type chimera) (antibody, human IgG1, V domains shown)
VH: QVQLKESGPGLVAPSQSLSITCTVSGFSLTNYGIHWVRQPPGKGLEWLGVIWARGFTNYNSALMSRLIITKDNSQSQVFLKMNSLQPDDSATYFCARANDGVYYAMDYWGQGTSVTVSS
VL: QFVLTQSPAFLSASPGEKVTMTCSANSSVNYIHWYQQKSGTSPKKWIYDTSKLASGVPVRFSGSGSGTSYSLTISSMETEDAATYYCQQWTTNPLTFGAGTRVELK
notes: murine VH and VL on human IgG1 Fc and human κ constant region; also called wt chimera
Ki [2]: 0.26 nM | Ki [3]: 0.52 nM | Ki [10]: 0.27 nM | EC50, inhibition of adhesion of CHO-α2 cells to collagen Type I [4]: 1.8 nM

B10: mouse-human chimeric TMC-2206 antibody carrying the two LC mutations of the SalI site (antibody, human IgG1, V domains shown)
VH: B9 VH
VL: B9 VL with E104D, L105I
notes: human IgG1 Fc and human κ constant region; 'L1061' is printed for L106I; also called chimeric form carrying the two LC mutations
Ki [10]: 0.27 nM

B11: humanized TMC-2206 variant hIgG1/κ VH12.0/VL10.0Q (antibody)
heavy: not shown
light: DFVMTQSPAFLSVTPGEKVTITCSAQSSVNYIHWYQQKPDQAPKKLIYDTSKLASGVPSRFSGSGSGTDYTFTISSLEAEDAATYYCQQWTTNPLTFGQGTKVEIKRTVAAPSVFIFPPSDEQLKSGTASVVCLLNNFYPREAKVQWKVDNALQSGNSQESVTEQDSKDSTYSLSSTLTLSKADYEKHKVYACEVTHQGLSSPVTKSFNRGEC
notes: hVH12.0 γ1 heavy chain and hVL10.0Q light chain; also called VH 12.0 VL 10.0Q (IgG1)
Ki [2]: 0.31 nM | EC50 (nM), cell adhesion to collagen assay [11]: 2.2 nM | Ki [12]: 0.27 nM

B12: humanized TMC-2206 variant hIgG4/κ VH14.0/VL10.0Q (antibody)
heavy: not shown
light: B11 light
notes: hVH14.0 γ4 heavy chain and hVL10.0Q light chain
Ki [12]: 0.36 nM

B13: humanized TMC-2206 variant hIgG1/κ VH14.0/VL10.0Q (antibody)
heavy: not shown
light: B11 light
notes: hVH14.0 γ1 heavy chain and hVL10.0Q light chain; also called VH 14.0 VL 10.0Q (IgG1)
Ki [2]: 0.29 nM | EC50 (nM), cell adhesion to collagen assay [11]: 1.3 nM | Ki [12]: 0.24 nM
